Where “and” joins values, the source holds several entries; their conditions need not be identical. Equal values may be shown once.
Legend:
[1] = molecular target: T1, human Mega CD40L recombinant protein (Enzo Lifesciences) (human, UniProt P29965 116-261); experiment: cell-based or functional assay
T1 sequence (looked up): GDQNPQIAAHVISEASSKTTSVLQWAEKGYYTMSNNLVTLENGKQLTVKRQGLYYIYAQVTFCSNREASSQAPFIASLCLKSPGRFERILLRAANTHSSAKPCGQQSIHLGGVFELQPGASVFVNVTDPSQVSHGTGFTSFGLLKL

[2] = molecular target: T1, human Mega CD40L recombinant protein …; experiment: cell-based or functional assay; remark: listed apart in the source
[3] = molecular target: T2, recombinant human CD40L (R&D Systems, 6420-CL-025/CF) (human, UniProt P29965 108-261, limits assumed); experiment: binding ELISA, plate-coated recombinant human CD40L, concentrated culture fluid; first-named of the two gene-introduced cell lines (two promoters); promoter not told
T2 sequence (looked up): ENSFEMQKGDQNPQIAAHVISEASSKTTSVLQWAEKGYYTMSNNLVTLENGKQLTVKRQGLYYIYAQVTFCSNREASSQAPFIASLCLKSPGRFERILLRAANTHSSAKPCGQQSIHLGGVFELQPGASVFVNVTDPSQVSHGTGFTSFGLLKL
Method: (§1) Each cell line was inoculated into a T175 flask at a cell density of 4.0×10³ cells/cm² using a culture medium. After culture at 37° C. and 5% CO₂ for 18 to 24 hours, the culture medium was thoroughly replaced with a fresh culture medium every 2 days, followed by culture. After culture for 3 days, the cells were harvested, and 7.0×10⁶ cells were inoculated into a T175 flask, followed by culture at 37° C. and 5% CO₂ for 18 to 24 hours. The culture medium was thoroughly removed, and the remaining medium was completely removed through washing with 10 mL of MEM alpha. 30 mL of an MEM alpha medium was added to a T175 flask, followed by culture for 48 hours. After 48 hours, all of the cell culture fluid was harvested and then centrifuged to remove residual cells and impurities. The cell culture fluid was transferred to a Vivaspin 20 and centrifuged, the culture fluid was concentrated, and the stefin A protein variant was quantified through sandwich ELISA (LSBio, LS-F4620). […] The unbound stefin A protein variant was removed through washing, after which the extent of binding between the stefin A protein variant and CD40L was detected based on a difference in absorbance resulting from reaction with a TMB substrate.

[4] = molecular target: T2, recombinant human CD40L (R&D Systems, …); experiment: binding ELISA, plate-coated recombinant human CD40L, concentrated culture fluid; second-named of the two gene-introduced cell lines (two promoters); promoter not told
Method: as §1

B1: XT75 anti-CD40L stefin A protein variant secreted by gene-introduced MSC (eMSC) (designed binder)
chain: IPGGLSEAKPATPEIQEIVDKVKPQLEEKTGETYGKLEAVQYKTQVVHYYVHYNDQGTNYYIKVRAGDNKYMHLKVFKSLWGENLFAKWEDLVLTGYQVDKNKDDELTGFAEAAAKEAAAKEAAAKEAAAKEAAAKEAAAKMIPGGLSEAKPATPEIQEIVDKVKPQLEEKTGETYGKLEAVQYKTQVVHYYVHYNDQGTNYYIKVRAGDNKYMHLKVFKSLWGENLFAKWEDLVLTGYQVDKNKDDELTGFAEAAAKEAAAKEAAAKEAAAKEAAAKEAAAKMIPGGLSEAKPATPEIQEIVDKVKPQLEEKTGETYGKLEAVQYKTQVVHYYVHYNDQGTNYYIKVRAGDNKYMHLKVFKSLWGENLFAKWEDLVLTGYQVDKNKDDELTGFAEAAAKEAAAKEAAAKEAAAKEAAAKEAAAKMIPRGLSEAKPATPEIQEIVDKVKPQLEEKTGETYGKLEAVQYKTQVLANFFQRRWPGSTNYYIKVRAGDNKYMHLKVFNGPWKFRNTDRGADRVLTGYQVDKNKDDELTGF
notes: also called eMSC (XT75, w/EF1A); eMSC (XT75, w/CBh)
IC50, HEK-Blue CD40L cell assay [1]: 0.303 nM and 0.4 nM | IC50 (read off the curve) [2]: ~0.3 nM and ~0.4 nM | EC50 [3]: 0.0039 nM | EC50 [4]: 0.0053 nM
